# Test results taken from patent publication US20260070987A1.
# Residue numbers refer to the chain shown, from its start. Numbers in names are those of the source.
# B1: equine IgG1 T286L (antibody, part only; not given: variable domains, not shown: another chain or arm of the molecule)
# constant: ASTTAPKVFALAPGCGTTSDSTVALGCLVSGYFPEPVKVSWNSGSLTSGVHTFPSVLQSSGFYSLSSMVTVPASTWTSETYICNVVHAASNFKVDKRIEPIPDNHQKVCDMSKCPKCPAPELLGGPSVFIFPPNPKDTLMITRTPEVTCVVVDVSQENPDVKFNWYMDGVEVRLATTRPKEEQFNSTYRVVSVLRIQHQDWLSGKEFKCKVNNQALPQPIERTITKTKGRSQEPQVYVLAPHPDELSKSKVSVTCLVKDFYPPEINIEWQSNGQPELETKYSTTQAQQDSDGSYFLYSKLSVDRNRWQQGTTFTCGVMHEALHNHYTQKNVSKNPGK
# B2: equine IgG1 M252A (antibody, part only; not given: variable domains, not shown: another chain or arm of the molecule)
# constant: B1 constant with M140A, L174T
# B3: equine IgG1 T286M (antibody, part only; not given: variable domains, not shown: another chain or arm of the molecule)
# constant: B1 constant with L174M
# B4: equine IgG1 T286Q (antibody, part only; not given: variable domains, not shown: another chain or arm of the molecule)
# constant: B1 constant with L174Q
# B5: equine IgG1 T286P (antibody, part only; not given: variable domains, not shown: another chain or arm of the molecule)
# constant: B1 constant with L174P
# B6: equine IgG4 A426T (antibody, part only; not given: Variable domains, not shown: another chain or arm of the molecule)
# constant: ASTTAPKVFPLASHSAATSGSTVALGCLVSSYFPEPVTVSWNSGALTSGVHTFPSVLQSSGLYSLSSMVTVPASSLKSQTYICNVAHPASSTKVDKKIVIKECNGGCPAECLQVGPSVFIFPPKPKDVLMISRTPTVTCVVVDVGHDFPDVQFNWYVDGVETHTATTEPKQEQFNSTYRVVSVLPIQHKDWLSGKEFKCKVNNKALPAPVERTISKPTGQPREPQVYVLAPHRDELSKNKVSVTCLVKDFYPTDIDIEWKSNGQPEPETKYSTTPAQLDSDGSYFLYSKLTVETNRWQQGTTFTCTVMHEALHNHYTEKSVSKSPGK
# B7: equine IgG4 M428G (antibody, part only; not given: variable domains, not shown: another chain or arm of the molecule)
# constant: B6 constant with T306A, M308G
# B8: equine IgG4 M428L (antibody, part only; not given: Variable domains, not shown: another chain or arm of the molecule)
# constant: B6 constant with T306A, M308L
# B9: equine IgG4 N434D (antibody, part only; not given: Variable domains, not shown: another chain or arm of the molecule)
# constant: B6 constant with T306A, N314D
# B10: equine IgG4 M428D (antibody, part only; not given: Variable domains, not shown: another chain or arm of the molecule)
# constant: B6 constant with T306A, M308D
# B11: equine IgG4 N434K (antibody, part only; not given: variable domains, not shown: another chain or arm of the molecule)
# constant: B6 constant with T306A, N314K
# B12: equine IgG4 N434A (antibody, part only; not given: Variable domains, not shown: another chain or arm of the molecule)
# constant: B6 constant with T306A, N314A
# B13: equine IgG4 N434L (antibody, part only; not given: variable domains, not shown: another chain or arm of the molecule)
# constant: B6 constant with T306A, N314L
# B14: equine IgG4 M428A (antibody, part only; not given: variable domains, not shown: another chain or arm of the molecule)
# constant: B6 constant with T306A, M308A
# B15: equine IgG4 M428S (antibody, part only; not given: variable domains, not shown: another chain or arm of the molecule)
# constant: B6 constant with T306A, M308S
# B16: equine IgG4 N434G (antibody, part only; not given: variable domains, not shown: another chain or arm of the molecule)
# constant: B6 constant with T306A, N314G
# B17: equine IgG4 N434C (antibody, part only; not given: Variable domains, not shown: another chain or arm of the molecule)
# constant: B6 constant with T306A, N314C
# B18: equine IgG4 M428H (antibody, part only; not given: variable domains, not shown: another chain or arm of the molecule)
# constant: B6 constant with T306A, M308H
# B19: equine IgG4 M428K (antibody, part only; not given: variable domains, not shown: another chain or arm of the molecule)
# constant: B6 constant with T306A, M308K
# B20: equine IgG4 M428Y (antibody, part only; not given: variable domains, not shown: another chain or arm of the molecule)
# constant: B6 constant with T306A, M308Y
# B21: equine IgG4 N434M (antibody, part only; not given: variable domains, not shown: another chain or arm of the molecule)
# constant: B6 constant with T306A, N314M
# B22: equine IgG4 M428R (antibody, part only; not given: variable domains, not shown: another chain or arm of the molecule)
# constant: B6 constant with T306A, M308R
# B23: equine IgG4 A426W (antibody, part only; not given: variable domains, not shown: another chain or arm of the molecule)
# constant: B6 constant with T306W
# B24: equine IgG4 M428P (antibody, part only; not given: variable domains, not shown: another chain or arm of the molecule)
# constant: B6 constant with T306A, M308P
# B25: equine IgG4 M428V (antibody, part only; not given: Variable domains, not shown: another chain or arm of the molecule)
# constant: B6 constant with T306A, M308V
# B26: equine IgG4 N434I (antibody, part only; not given: variable domains, not shown: another chain or arm of the molecule)
# constant: B6 constant with T306A, N314I
# B27: equine IgG4 A426Y (antibody, part only; not given: variable domains, not shown: another chain or arm of the molecule)
# constant: B6 constant with T306Y
# B28: equine IgG4 M428I (antibody, part only; not given: variable domains, not shown: another chain or arm of the molecule)
# constant: B6 constant with T306A, M308I
# B29: equine IgG4 M428W (antibody, part only; not given: variable domains, not shown: another chain or arm of the molecule)
# constant: B6 constant with T306A, M308W
# B30: equine IgG4 N434F (antibody, part only; not given: variable domains, not shown: another chain or arm of the molecule)
# constant: B6 constant with T306A, N314F
# B31: equine IgG4 N434H (antibody, part only; not given: Variable domains, not shown: another chain or arm of the molecule)
# constant: B6 constant with T306A, N314H
# B32: equine IgG4 A426V (antibody, part only; not given: Variable domains, not shown: another chain or arm of the molecule)
# constant: B6 constant with T306V
# B33: equine IgG4 M428C (antibody, part only; not given: variable domains, not shown: another chain or arm of the molecule)
# constant: B6 constant with T306A, M308C
# B34: equine IgG4 N434E (antibody, part only; not given: variable domains, not shown: another chain or arm of the molecule)
# constant: B6 constant with T306A, N314E
# B35: equine IgG4 M428T (antibody, part only; not given: variable domains, not shown: another chain or arm of the molecule)
# constant: B6 constant with T306A, M308T
# B36: equine IgG4 M428E (antibody, part only; not given: variable domains, not shown: another chain or arm of the molecule)
# constant: B6 constant with T306A, M308E
# B37: equine IgG4 M428N (antibody, part only; not given: variable domains, not shown: another chain or arm of the molecule)
# constant: B6 constant with T306A, M308N
# B38: equine IgG4 M428F (antibody, part only; not given: variable domains, not shown: another chain or arm of the molecule)
# constant: B6 constant with T306A, M308F
# B39: equine IgG4 M428Q (antibody, part only; not given: variable domains, not shown: another chain or arm of the molecule)
# constant: B6 constant with T306A, M308Q
# Biological target: equine FcRn (large alpha subunit p51) / equine beta-2-microglobulin complex, biotinylated (equine) (UniProt P30441)
# Assay: SPR (Biacore), pH 6
# UniProt P30441, sequence (P30441 21-118, one chain of several): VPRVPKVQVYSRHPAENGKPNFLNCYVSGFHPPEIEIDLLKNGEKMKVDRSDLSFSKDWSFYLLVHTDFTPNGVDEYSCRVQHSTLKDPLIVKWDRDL
row,Binder,Kd
1,B1,12.3 nM
2,B2,50.3 nM
3,B3,15.6 nM
4,B4,17 nM
5,B5,14.6 nM
6,B6,15.8 nM
7,B7,31.5 nM
8,B8,17.4 nM
9,B9,38.5 nM
10,B10,40.7 nM
11,B11,42.8 nM
12,B12,17.4 nM
13,B13,48.5 nM
14,B14,23000 nM
15,B15,40.6 nM
16,B16,21.2 nM
17,B17,113 nM
18,B18,29.4 nM
19,B19,46.2 nM
20,B20,30.8 nM

row,Binder,Kd
1,B21,43.4 nM
2,B22,93.1 nM
3,B23,14.4 nM
4,B24,13000 nM
5,B25,75.2 nM
6,B26,40.6 nM
7,B27,12.3 nM
8,B28,49.5 nM
9,B29,31 nM
10,B30,4.4 nM
11,B31,5.2 nM
12,B32,18.8 nM
13,B33,53.2 nM
14,B34,71.3 nM
15,B35,71.8 nM
16,B36,40.8 nM
17,B37,44.3 nM
18,B38,25.4 nM
19,B39,30 nM
